Source: publication PMC12691602, “Cryo-EM structure of the QseG-QseE complex reveals an accessory protein-driven two-component system activation mechanism” (mBio, 2025)

How the values were obtained:
[1] = target: strep-tagged QseE_(1-196) (Salmonella enterica serovar Typhimurium SL1344); assay: cross-linking; QseE constructs in solution (Fig. S2A); cross-linker and conditions not shown
QseE = target: T1, QseE (Escherichia coli, UniProt Q8XA47)
T1 chain: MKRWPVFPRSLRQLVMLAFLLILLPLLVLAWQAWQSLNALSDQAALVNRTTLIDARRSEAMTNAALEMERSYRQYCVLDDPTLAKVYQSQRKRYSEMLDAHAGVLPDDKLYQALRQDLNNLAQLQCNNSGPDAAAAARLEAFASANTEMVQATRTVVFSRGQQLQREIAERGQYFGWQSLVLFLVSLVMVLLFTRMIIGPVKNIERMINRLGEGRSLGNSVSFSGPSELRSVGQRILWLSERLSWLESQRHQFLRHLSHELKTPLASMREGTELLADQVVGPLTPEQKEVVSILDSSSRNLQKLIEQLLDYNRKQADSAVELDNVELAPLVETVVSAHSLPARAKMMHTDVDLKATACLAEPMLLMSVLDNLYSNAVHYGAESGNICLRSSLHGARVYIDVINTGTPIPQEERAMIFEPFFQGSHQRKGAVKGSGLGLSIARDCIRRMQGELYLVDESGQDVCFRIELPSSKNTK

[2] = target: the molecule itself; assay: cryo-EM structure; QseG_(37-221) and QseE mixed at 3:1 molar ratio, complex separated by SEC; 3.9 Å map with C2 symmetry imposed; model limited to QseG 58-220 and QseE 34-173
QseE-eGFP = target: T2, QseE-eGFP (Salmonella enterica serovar Typhimurium …, UniProt A0A4Z0KJZ8 1-461); assay: MST; QseG_(37-end) in serial dilution mixed with QseE-eGFP; 20 mM HEPES pH 7.5, 150 mM NaCl, 0.02% DDM, 0.05% Tween 20; 25°C, 30 min; Monolith NT.115, medium MST power, 40% LED; conditions: both partners purified
T2 construct: QseE of S. Typhimurium SL1344 fused to eGFP; source: E. coli, purified
T2 sequence: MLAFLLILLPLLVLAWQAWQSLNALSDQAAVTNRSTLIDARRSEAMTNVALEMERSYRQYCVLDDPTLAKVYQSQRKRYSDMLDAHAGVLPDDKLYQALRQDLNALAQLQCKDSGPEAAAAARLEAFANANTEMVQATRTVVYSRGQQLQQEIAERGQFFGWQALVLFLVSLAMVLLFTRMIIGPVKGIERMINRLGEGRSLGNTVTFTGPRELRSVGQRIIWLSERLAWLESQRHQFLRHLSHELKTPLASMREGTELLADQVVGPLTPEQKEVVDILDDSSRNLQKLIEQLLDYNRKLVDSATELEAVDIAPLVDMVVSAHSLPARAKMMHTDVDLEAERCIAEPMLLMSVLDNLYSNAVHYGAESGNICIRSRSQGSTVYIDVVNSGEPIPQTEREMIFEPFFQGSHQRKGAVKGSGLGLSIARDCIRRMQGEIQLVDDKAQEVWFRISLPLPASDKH

strep-tagged QseE_(1-196) (from UniProt A0A4Z0KJZ8 1-196) (domain or fragment)
stoichiometry N [1]: 2

B1: QseG (protein)
chain: CVQNHNKPAIDTPAEEKIPVYQLADYLSTECSDIWALQGKSTETNPLYWLRAMDCADRLMPAQSRQQARQYDDGSWQNTFKQGILLADAKITPYERRQLVARIEALSTEIPAQVRPLYQLWRDGQALQLQLAEERQRYSKLQQSSDSELDTLRQQHHVLQQQLELTTRKLENLTDIERQLSTRKPAGNFSPDTPHESEKPAPSTHEVTPDEP
Kd (QseE): 109 nM

B2: full-length QseE (QseEfl), C-terminal Strep II tag (natural protein)
chain: MLAFLLILLPLLVLAWQAWQSLNALSDQAAVTNRSTLIDARRSEAMTNVALEMERSYRQYCVLDDPTLAKVYQSQRKRYSDMLDAHAGVLPDDKLYQALRQDLNALAQLQCKDSGPEAAAAARLEAFANANTEMVQATRTVVYSRGQQLQQEIAERGQFFGWQALVLFLVSLAMVLLFTRMIIGPVKGIERMINRLGEGRSLGNTVTFTGPRELRSVGQRIIWLSERLAWLESQRHQFLRHLSHELKTPLASMREGTELLADQVVGPLTPEQKEVVDILDDSSRNLQKLIEQLLDYNRKLVDSATELEAVDIAPLVDMVVSAHSLPARAKMMHTDVDLEAERCIAEPMLLMSVLDNLYSNAVHYGAESGNICIRSRSQGSTVYIDVVNSGEPIPQTEREMIFEPFFQGSHQRKGAVKGSGLGLSIARDCIRRMQGEIQLVDDKAQEVWFRISLPLPASDKH
notes: Dimer by cross-linking and in the cryo-EM structure; also called strep-tagged QseE; source: E. coli C43(DE3), purified from membranes in LMNG/CHS (Strep-Tactin, SEC); not shown: Strep II, C-terminal, kept
stoichiometry N [2]: 2

B3: QseG (mature lipoprotein, QseG_(37-end)) (natural protein)
chain: CVPHASQQLPDSAAQDTLPHYQLADYLPTACADIWSLRGQAVETNPLYWLRTIDCADRLMPVQSRAEARALTDDNWQNAFRRGILLADAKITPPERRAIVTRLEALSAQIPAQVRPVYQIWHDGQALQLALSAERQRYSKLQQTSDSELDALRQQQQALQTQLDLTTRKLESLTDIERQLSTRKPAGNYNADTPHTNDKPATSEDGAAPSPSQDEVTP
notes: also called wild-type QseG; source: E. coli C43(DE3), purified (Strep-Tactin, on-column TEV cleavage, SEC); not shown: Strep II, N-terminal, cleaved
Kd (QseE-eGFP): 108 nM

B4: QseG_(37-221) (domain or fragment)
chain: CVPHASQQLPDSAAQDTLPHYQLADYLPTACADIWSLRGQAVETNPLYWLRTIDCADRLMPVQSRAEARALTDDNWQNAFRRGILLADAKITPPERRAIVTRLEALSAQIPAQVRPVYQIWHDGQALQLALSAERQRYSKLQQTSDSELDALRQQQQALQTQLDLTTRKLESLTDIERQLSTRKP
notes: QseG of S. Typhimurium SL1344, residues 37-221; Homodimer in the cryo-EM structure of the complex; source: E. coli C43(DE3), purified (Strep-Tactin, on-column TEV cleavage, SEC); not shown: Strep II, N-terminal, cleaved
stoichiometry N [2]: 2
